# Source: US20220389085A1 (BIONOXX, published 2022)
# T1: protein A56 of the oncolytic virus OTS-412 (vaccinia virus (OTS-412), UniProt P08714 17-315)
# T1 construct: also called OTS-412-A56; protein A56 variant
# T1 chain: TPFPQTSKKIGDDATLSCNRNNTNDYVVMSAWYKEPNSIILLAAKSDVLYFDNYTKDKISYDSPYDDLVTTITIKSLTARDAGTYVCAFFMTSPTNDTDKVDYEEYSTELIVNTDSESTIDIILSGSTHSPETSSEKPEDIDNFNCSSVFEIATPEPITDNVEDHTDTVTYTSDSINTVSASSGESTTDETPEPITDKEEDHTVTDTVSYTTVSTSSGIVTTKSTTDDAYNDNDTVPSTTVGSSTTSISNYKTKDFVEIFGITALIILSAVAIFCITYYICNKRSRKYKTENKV
# What was measured:
# [1] = biological target: T1, protein A56 of the oncolytic virus …; experiment: flow cytometry, PC3 cells treated with OTS-412
# [2] = biological target: T1, protein A56 of the oncolytic virus …; experiment: flow cytometry, MCF7 cells treated with OTS-412
# [3] = biological target: T2, protein A56 of the oncolytic virus WOTS-418 (vaccinia virus (WOTS-418, Western …, UniProt Q01218 17-314)); experiment: flow cytometry, PC3 cells treated with WOTS-418
# T2 construct: also called WOTS-418-A56; protein A56 variant
# [4] = biological target: T2, protein A56 of the oncolytic virus …; experiment: flow cytometry, MCF7 cells treated with WOTS-418
# [5] = biological target: T1, protein A56 of the oncolytic virus …; experiment: flow cytometry, PC3 cells treated with OTS-412 (overlay, FIG. 74)
# [6] = biological target: T2, protein A56 of the oncolytic virus …; experiment: flow cytometry, PC3 cells treated with WOTS-418 (overlay, FIG. 75)
binder,measurement,setting,value
"A56-02B08 (Ab16) (antibody, V domains shown) VH: QVQLQQSGPGLVKPSQTLSLTCAISGDSVSSNSAAWNWIRQSPSRGLEWLGRTYYRSKWYNDYAVSVKSRITINPDTSKNQFSLQLNSVTAVDTAVYYCAKSYAGPISYYYYGLDVWGQGTTVTVSS VL: QSALTQPASVSGSPGQSVTISCTGTSSDIGRYNLVSWYQQHPGKAPKLMIYGGSKRPSGVSNRFSGSNSDNTASLTISGLRAEDEADYYCSSYASSSTPYVFGTGTKVTVL","binding signal (flow cytometry, %)",[1],≥ 70%
same,"binding signal (flow cytometry, %)",[2],≥ 80%
same,"binding signal (flow cytometry, %)",[3],≥ 70%
same,"binding signal (flow cytometry, %)",[4],≥ 80%
same,"binding signal (flow cytometry, %)",[5],≥ 60%
same,"binding signal (flow cytometry, %)",[6],≥ 60%
